What was measured:
PACAP38 (human) = experiment: cell-based or functional assay
PACAP27 (human) = experiment: cell-based or functional assay
PACAP27 (human), sequence (peptide, as listed by the source): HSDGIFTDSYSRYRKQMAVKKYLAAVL

PACAP38 (human), sequence (peptide, as listed by the source): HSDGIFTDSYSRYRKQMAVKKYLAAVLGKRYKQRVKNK

Percentage Tryptase Release upon addition of PACAP38 (1 uM), human mast cells, negative control antibody (PACAP38 (human)): 104%
Percentage Tryptase Release upon addition of PACAP38 (%), negative control antibody dose 153 uM (PACAP38 (human)): 79.6%
Percentage Tryptase Release upon addition of PACAP27 (1 uM), human mast cells, negative control antibody (PACAP27 (human)): 110%
Percentage Tryptase Release upon addition of PACAP27 (%), negative control antibody dose 153 uM (PACAP27 (human)): 94.8%
Substance: Control IgG4 antibody

— patent publication US20200131256A1
